Assays:
[1] = target: T1, purified recombinant human α5β1 integrin heterodimer, 6×His tagged (rh-α5β1); Acro Biosystems, cat. no. … (human, UniProt P08648 42-995; P05556 21-728); experiment: BLI (Octet), supernatant mAb on anti-mouse IgG Fc sensor, 20 nM rh-α5β1
T1 construct: bought recombinant heterodimer; also called rh-α5β1-6×His tagged protein; His-tagged-α5β1
Source text: Anti-Mouse IgG Fc biosensors were used to load each clone supernatant. Assay steps were as follows: Sensor Check (30s)-->Load Ab (700s)-->Quench (480s)-->Baseline(480s)-->Ab Assoc. (600s)-->Dissoc. (600s).

[2] = target: T2, α5β1 integrin on cells (PMA-activated K562 cells; U87MG cells) (human, UniProt P08648 42-1049; P05556 21-798); experiment: flow cytometry on PMA-activated K562 cells, hybridoma supernatant
T2 construct: Endogenous integrin of human cell lines; also called cellular α5β1 integrin; cell surface α5β1 integrin receptors
Procedure: Four weeks later cells from spleens and draining lymph nodes were fused to create hybridomas. […] In short, hybridoma supernatants were incubated with the activated K562 cells for 20 minutes, washed, then incubated with a fluorescent conjugated detecting antibody for 20 minutes, washed, resuspended in 7-Aminoactinomycin D, and Mean Fluorescence Intensity (MFI) measured on a Guava cytometer (Luminex Corporation, Austin, TX 78727).

T1 sequence (P08648 42-995 limits assumed, form in doubt, chain 1 of 2): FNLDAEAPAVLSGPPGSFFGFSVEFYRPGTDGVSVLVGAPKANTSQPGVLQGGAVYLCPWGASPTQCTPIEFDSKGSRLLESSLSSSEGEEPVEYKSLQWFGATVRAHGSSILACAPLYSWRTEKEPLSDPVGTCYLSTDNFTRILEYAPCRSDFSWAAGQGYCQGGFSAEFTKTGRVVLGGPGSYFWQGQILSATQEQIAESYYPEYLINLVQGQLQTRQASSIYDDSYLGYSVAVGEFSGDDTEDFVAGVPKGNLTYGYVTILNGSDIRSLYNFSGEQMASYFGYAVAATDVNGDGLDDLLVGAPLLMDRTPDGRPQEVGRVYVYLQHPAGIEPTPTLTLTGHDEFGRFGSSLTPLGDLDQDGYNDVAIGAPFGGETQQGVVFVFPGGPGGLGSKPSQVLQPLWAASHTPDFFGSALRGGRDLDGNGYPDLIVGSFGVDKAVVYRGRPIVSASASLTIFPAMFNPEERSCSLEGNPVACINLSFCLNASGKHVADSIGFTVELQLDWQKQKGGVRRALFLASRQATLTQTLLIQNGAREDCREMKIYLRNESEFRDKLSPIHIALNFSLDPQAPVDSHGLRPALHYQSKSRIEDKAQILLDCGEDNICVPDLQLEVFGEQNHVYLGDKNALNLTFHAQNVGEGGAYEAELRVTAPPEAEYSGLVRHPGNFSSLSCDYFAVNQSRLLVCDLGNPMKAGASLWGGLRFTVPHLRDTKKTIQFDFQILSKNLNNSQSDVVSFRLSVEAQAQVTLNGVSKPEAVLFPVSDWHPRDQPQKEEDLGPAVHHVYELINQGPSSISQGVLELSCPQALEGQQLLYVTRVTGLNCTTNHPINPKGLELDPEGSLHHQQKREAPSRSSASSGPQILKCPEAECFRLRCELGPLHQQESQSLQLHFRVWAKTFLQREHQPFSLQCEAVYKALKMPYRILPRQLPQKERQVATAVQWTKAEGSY
T1 sequence (P05556 21-728 limits assumed, form in doubt, chain 2 of 2): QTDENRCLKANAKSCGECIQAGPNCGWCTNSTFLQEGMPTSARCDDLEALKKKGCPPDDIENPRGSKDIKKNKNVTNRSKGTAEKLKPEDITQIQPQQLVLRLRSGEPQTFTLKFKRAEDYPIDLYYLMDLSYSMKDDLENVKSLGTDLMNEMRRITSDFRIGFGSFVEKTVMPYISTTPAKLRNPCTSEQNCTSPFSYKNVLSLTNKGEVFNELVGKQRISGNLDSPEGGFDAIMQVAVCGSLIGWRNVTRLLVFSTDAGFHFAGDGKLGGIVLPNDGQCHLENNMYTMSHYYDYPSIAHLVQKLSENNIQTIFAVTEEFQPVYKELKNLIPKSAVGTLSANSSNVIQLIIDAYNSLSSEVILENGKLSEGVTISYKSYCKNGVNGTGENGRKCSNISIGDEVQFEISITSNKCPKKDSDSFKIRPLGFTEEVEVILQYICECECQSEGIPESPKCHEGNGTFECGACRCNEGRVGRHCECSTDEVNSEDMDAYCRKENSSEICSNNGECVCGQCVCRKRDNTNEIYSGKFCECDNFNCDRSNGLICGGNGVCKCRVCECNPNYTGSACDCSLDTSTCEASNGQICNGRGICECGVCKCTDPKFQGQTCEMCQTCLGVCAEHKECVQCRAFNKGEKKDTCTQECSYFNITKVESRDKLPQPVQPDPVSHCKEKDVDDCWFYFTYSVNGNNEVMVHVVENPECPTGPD
T2 sequence (P08648 42-1049 limits assumed, chain 1 of 2): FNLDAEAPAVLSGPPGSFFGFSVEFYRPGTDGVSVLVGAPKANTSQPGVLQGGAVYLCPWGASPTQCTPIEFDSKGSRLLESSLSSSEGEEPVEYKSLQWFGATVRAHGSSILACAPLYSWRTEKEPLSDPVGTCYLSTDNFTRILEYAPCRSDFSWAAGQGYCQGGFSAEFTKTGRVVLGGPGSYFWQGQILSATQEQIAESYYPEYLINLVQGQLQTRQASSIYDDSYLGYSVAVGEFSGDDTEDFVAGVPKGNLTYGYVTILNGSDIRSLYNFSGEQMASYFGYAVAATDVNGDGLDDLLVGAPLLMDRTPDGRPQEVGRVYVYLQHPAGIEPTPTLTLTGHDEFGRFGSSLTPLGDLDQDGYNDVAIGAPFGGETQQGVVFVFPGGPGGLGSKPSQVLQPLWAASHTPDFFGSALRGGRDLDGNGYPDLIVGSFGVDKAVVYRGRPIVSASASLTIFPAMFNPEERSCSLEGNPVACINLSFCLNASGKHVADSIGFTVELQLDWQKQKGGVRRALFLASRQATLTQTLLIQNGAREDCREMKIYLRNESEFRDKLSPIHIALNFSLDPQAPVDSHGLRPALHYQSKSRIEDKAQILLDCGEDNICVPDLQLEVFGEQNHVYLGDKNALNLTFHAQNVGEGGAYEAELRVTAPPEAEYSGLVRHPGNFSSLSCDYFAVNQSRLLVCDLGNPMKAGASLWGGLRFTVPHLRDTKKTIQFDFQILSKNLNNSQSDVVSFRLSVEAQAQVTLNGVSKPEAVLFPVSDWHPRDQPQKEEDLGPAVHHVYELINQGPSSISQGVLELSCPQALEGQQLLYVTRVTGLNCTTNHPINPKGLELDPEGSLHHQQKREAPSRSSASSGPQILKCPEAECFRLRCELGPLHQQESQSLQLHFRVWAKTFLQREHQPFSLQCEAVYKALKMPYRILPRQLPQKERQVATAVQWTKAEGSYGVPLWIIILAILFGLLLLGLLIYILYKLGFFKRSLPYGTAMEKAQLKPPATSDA
T2 sequence (P05556 21-798 limits assumed, chain 2 of 2): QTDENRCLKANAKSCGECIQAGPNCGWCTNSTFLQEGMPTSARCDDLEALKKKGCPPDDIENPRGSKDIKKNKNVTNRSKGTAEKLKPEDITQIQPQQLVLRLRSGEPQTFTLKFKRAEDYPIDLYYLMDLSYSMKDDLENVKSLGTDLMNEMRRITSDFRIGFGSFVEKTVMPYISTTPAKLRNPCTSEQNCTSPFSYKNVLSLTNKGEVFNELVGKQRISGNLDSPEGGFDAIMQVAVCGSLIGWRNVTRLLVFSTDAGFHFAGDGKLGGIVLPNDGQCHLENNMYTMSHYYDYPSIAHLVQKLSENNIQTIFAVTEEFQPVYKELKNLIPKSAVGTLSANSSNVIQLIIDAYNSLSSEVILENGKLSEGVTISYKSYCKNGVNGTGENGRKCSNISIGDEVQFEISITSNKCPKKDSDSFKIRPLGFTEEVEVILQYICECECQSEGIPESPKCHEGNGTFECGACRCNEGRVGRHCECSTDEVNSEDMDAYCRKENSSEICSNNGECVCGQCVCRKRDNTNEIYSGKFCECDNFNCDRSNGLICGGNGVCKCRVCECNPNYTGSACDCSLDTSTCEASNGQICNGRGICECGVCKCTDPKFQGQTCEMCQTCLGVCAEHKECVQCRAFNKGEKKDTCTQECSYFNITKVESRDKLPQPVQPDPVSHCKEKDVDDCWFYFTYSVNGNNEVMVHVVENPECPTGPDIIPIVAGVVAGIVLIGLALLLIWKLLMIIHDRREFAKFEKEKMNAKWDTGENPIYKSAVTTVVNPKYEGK

Row | Binder | Kd [1] [nM] | koff [1] [s⁻¹] | kon [1] [M⁻¹ s⁻¹] | MFI [2]
1 | A-4G02 (antibody, V domains shown, mouse hybridoma antibody) VH: QVQLKESGPGLVAPSQSLSITCTISGFSLTSYGVHWVRQPPGKGLEWLVVIWSDGSTTYNSTLKSRLSISKDNSKSQVFFKMNSLQTDDTAMYYCARHYDYDGDWFAYWGQGTLVTVSA VL: QIVLTQSPAIMSASLGERVTMTCTASSRVSSNSLHWYQQKPGSSPKLWIYSTSNLASGVPARFSGSGSGTSYSLTISSMEAEDAATYYCHQYLRSPPTFGGGTKLEIK | 1.23 | 0.000396 | 321000 | 
2 | A2-6C10 (antibody, V domains shown, mouse hybridoma) VH: QVQLKESGPGLVAPSQSLSITCTISGFSLTTYGVHWVRQPPGKGLEWLVVIWSDGSTTYNSALKSRLNITKDNSKSQVFLKMNSLQTDDTAMYYCVRHGGLLRRDAMDYWGQGTSVTVSS VL: QIVLTQSPAIMSASLGERVTMTCTASSSVSSNSFHWYQQKPGSSPKLWLYSTSNLASGVPARFSGSGSGTSYSLTISSMEAEDAATYYCHQYLRSPPTFGGGTKLEIK |  |  |  | 2120
3 | A-15B08 (antibody, V domains shown, mouse hybridoma antibody (supernatant, or purified by Protein A); NST N-glycosylation site in CDRH2; also called antibody designated A-15B08) VH: QVQLKESGPGLVAPSQSLSITCTISGFSLTSYGVHWVRQPPGKGLEWLVVIWSDGSTTYNSTLKSRLSISKDNSKSQVFFKMNSLQTDDTAMYYCARHYDYDGDWFAYWGQGTLVTVSA VL: QIVLTQSPAIMSASLGERVTMTCTASSRVSSNSLHWYQQKPGSSPKLWIYSTSNLASGVPARFSGSGSGTSYSLTISSMEAEDAATYYCHQYLRSPPTFGGGTKLEIK |  |  |  | 1390
4 | C-14D12 (antibody, V domains shown, mouse hybridoma antibody (supernatant, or purified by Protein A); also called antibody designated C-14D12; C-14D2) VH: QVQLKESGPDLVAPSQSLSITCTVSGFSLTDYGVHWVRQPPGKGLEWLVVIWSDGSTTYNSALKSRLSITKDTSKRQVFLKMNSLQTDDTAMYYCARHAPSFIRYGSRYDALDYWGQGTSVTVSS VL: QIVLTQSPAIMSASLGERVTLTCTASSSVTSSFLHWYQQKPGSSPKLWIYSTSNLASGVPARFSGSGSGTSYSLTISSMEAEDAATYYCHQYHRSPPTFGGGTKLEIK |  |  |  | 2020
5 | A-7D06 (antibody, V domains shown, mouse hybridoma antibody) VH: QVQLKESGPGLVAPSQSLSITCTISGFSLTTYGVHWVRQPPGKGLEWLVVIWSDGSTTYNSALKSRLNITKDNSKSQVFLKMNSLQTDDTAMYYCVRHGGLLRRDAMDYWGQGTSVTVSS VL: QIVLTQSPAIMSASLGERVTMTCTASSSVSSNSFHWYQQKPGSSPKLWLYSTSNLASGVPARFSGSGSGTSYSLTISSMEAEDAATYYCHQYLRSPPTFGGGTKLEIK | 4.75 | 0.00128 | 270000 | 
6 | A-4G02 (antibody, V domains shown, mouse hybridoma) VH: QVQLKESGPGLVAPSQSLSITCTISGFSLTSYGVHWVRQPPGKGLEWLVVIWSDGSTTYNSTLKSRLSISKDNSKSQVFFKMNSLQTDDTAMYYCARHYDYDGDWFAYWGQGTLVTVSA VL: QIVLTQSPAIMSASLGERVTMTCTASSRVSSNSLHWYQQKPGSSPKLWIYSTSNLASGVPARFSGSGSGTSYSLTISSMEAEDAATYYCHQYLRSPPTFGGGTKLEIK |  |  |  | 1980
7 | A2-8H11 (antibody, V domains shown, mouse hybridoma) VH: QVQLKESGPGLVAPSQSLSITCTISGFSLTTYGVHWVRQPPGKGLEWLVVIWSDGSTTYNSALKSRLNITKDNSKSQVFLKMNSLQTDDTAMYYCVRHGGLLRRDAMDYWGQGTSVTVSS VL: QIVLTQSPAIMSASLGERVTMTCTASSSVSSNSFHWYQQKPGSSPKLWLYSTSNLASGVPARFSGSGSGTSYSLTISSMEAEDAATYYCHQYLRSPPTFGGGTKLEIK |  |  |  | 4370
8 | A-3A08 (antibody, V domains shown, mouse hybridoma antibody) VH: QVQLKESGPGLVAPSQSLSITCTISGFSLTTYGVHWVRQPPGKGLEWLVVIWSDGSTTYNSALKSRLNITKDNSKSQVFLKMNSLQTDDTAMYYCVRHGGLLRRDAMDYWGQGTSVTVSS VL: QIVLTQSPAIMSASLGERVTMTCTASSSVSSNSFHWYQQKPGSSPKLWLYSTSNLASGVPARFSGSGSGTSYSLTISSMEAEDAATYYCHQYLRSPPTFGGGTKLEIK | 5.08 | 0.00124 | 244000 | 
9 | A2-3B06 (antibody, V domains shown, mouse hybridoma antibody (supernatant, or purified by Protein A); also called antibody designated A2-3B06) VH: QVQLKESGPGLVAPSQSLSITCTISGFSLTTYGVHWVRQPPGKGLEWLVVIWSDGSTTYNSALKSRLNITKDNSKSQVFLKMNSLQTDDTAMYYCVRHGGLLRRDAMDYWGQGTSVTVSS VL: QIVLTQSPAIMSASLGERVTMTCTASSSVSSNSFHWYQQKPGSSPKLWLYSTSNLASGVPARFSGSGSGTSYSLTISSMEAEDAATYYCHQYLRSPPTFGGGTKLEIK |  |  |  | 2140
10 | C-8G11 (antibody, V domains shown, mouse hybridoma antibody) VH: QVQLKESGPDLVAPSQSLSITCTVSGFSLTDYGVHWVRQPPGKGLEWLVVIWSDGSTTYNSALKSRLSITKDTSKRQVFLKMNSLQTDDTAMYYCARHAPSFIRYGSRYDALDYWGQGTSVTVSS VL: QIVLTQSPAIMSASLGERVTLTCTASSSVTSSFLHWYQQKPGSSPKLWIYSTSNLASGVPARFSGSGSGTSYSLTISSMEAEDAATYYCHQYHRSPPTFGGGTKLEIK | 0.442 | 0.00012 | 271000 | 
11 | A-11G01 (antibody, V domains shown, mouse hybridoma antibody) VH: QVQLKESGPGLVAPSQSLSITCTISGFSLTTYGVHWVRQPPGKGLEWLVVIWSDGSTTYNSALKSRLNITKDNSKSQVFLKMNSLQTDDTAMYYCVRHGGLLRRDAMDYWGQGTSVTVSS VL: QIVLTQSPAIMSASLGERVTMTCTASSSVSSNSFHWYQQKPGSSPKLWLYSTSNLASGVPARFSGSGSGTSYSLTISSMEAEDAATYYCHQYLRSPPTFGGGTKLEIK | 5.03 | 0.00132 | 261000 | 
12 | A2-9A11 (antibody, V domains shown, mouse hybridoma) VH: QVQLKESGPGLVAPSQSLSITCTISGFSLTTYGVHWVRQPPGKGLEWLVVIWSDGSTTYNSALKSRLNITKDNSKSQVFLKMNSLQTDDTAMYYCVRHGGLLRRDAMDYWGQGTSVTVSS VL: QIVLTQSPAIMSASLGERVTMTCTASSSVSSNSFHWYQQKPGSSPKLWLYSTSNLASGVPARFSGSGSGTSYSLTISSMEAEDAATYYCHQYLRSPPTFGGGTKLEIK |  |  |  | 3400
13 | C-8G11 (antibody, V domains shown, mouse hybridoma) VH: QVQLKESGPDLVAPSQSLSITCTVSGFSLTDYGVHWVRQPPGKGLEWLVVIWSDGSTTYNSALKSRLSITKDTSKRQVFLKMNSLQTDDTAMYYCARHAPSFIRYGSRYDALDYWGQGTSVTVSS VL: QIVLTQSPAIMSASLGERVTLTCTASSSVTSSFLHWYQQKPGSSPKLWIYSTSNLASGVPARFSGSGSGTSYSLTISSMEAEDAATYYCHQYHRSPPTFGGGTKLEIK |  |  |  | 2690
14 | A2-5D10 (antibody, V domains shown, mouse hybridoma antibody (supernatant, or purified by Protein A); also called antibody designated A2-5D10) VH: QVQLKESGPGLVAPSQSLSITCTISGFSLTSYGVHWVRQPPGKGLEWLVVIWSDGSTTYNSTLKSRLSISKDNSKSQVFLKMNSLQTDDTAMYYCARHYDYDGDWFAYWGQGTLVTVSA VL: QILLTQSPAIMSASLGERVTMTCTASSSVSSRCLHWYQQKPGSSPKLWIYSTSNLASGVPARFRGSGSGTSYSLTISSMEAEDAATYYCHQYYRSPPTFGGGTKLEIK |  |  |  | 1890
15 | A-14G08 (antibody, V domains shown, mouse hybridoma antibody) VH: QVQLQQPGAELVKPGASVKLSCKASGYTFTIYWINWVKQRPGQGLEWIGKIYPGSISTDYNEKFKSKATLTVDTSSSTAYMQLSSLTSDDSAVYYCAITGTGGLAYWGQGTLVTVSA VL: ENVLTQSPAIMSASLGEKVTMTCRASSSVNYMYWYQQKSDASPKLWIYFTSSLAPGVPGRFSGSGSGNSYSLTISTMEGEDAATYYCQQFTTSPFTFGSGTKLEIK | 0.845 | 0.000198 | 234000 | 
16 | A-15H11 (antibody, V domains shown, mouse hybridoma antibody) VH: QVQLQQPGAELVKPGASVKLSCKASGYTFTIYWINWVKQRPGQGLEWIGKIYPGSISTDYNEKFKSKATLTVDTSSSTAYMQLSSLTSDDSAVYYCAITGTGGLAYWGQGTLVTVSA VL: ENVLTQSPAIMSASLGEKVTMTCRASSSVNYMYWYQQKSDASPKLWIYFTSSLAPGVPGRFSGSGSGNSYSLTISTMEGEDAATYYCQQFTTSPFTFGSGTKLEIK | 0.901 | 0.000193 | 215000 | 
17 | A2-7A05 (antibody, V domains shown, mouse hybridoma antibody (supernatant, or purified by Protein A); also called antibody designated A2-7A05; A-7A05) VH: QVQLQQPGAELVKPGASVKLSCKASGYTFTIYWINWVKQRPGQGLEWIGKIYPGSISTDYNEKFKSKATLTVDTSSSTAYMQLSSLTSDDSAVYYCAITGTGGLAYWGQGTLVTVSA VL: ENVLTQSPAIMSASLGEKVTMTCRASSSVNYMYWYQQKSDASPKLWIYFTSSLAPGVPGRFSGSGSGNSYSLTISTMEGEDAATYYCQQFTTSPFTFGSGTKLEIK |  |  |  | 5500
18 | A-14G08 (antibody, V domains shown, mouse hybridoma) VH: QVQLQQPGAELVKPGASVKLSCKASGYTFTIYWINWVKQRPGQGLEWIGKIYPGSISTDYNEKFKSKATLTVDTSSSTAYMQLSSLTSDDSAVYYCAITGTGGLAYWGQGTLVTVSA VL: ENVLTQSPAIMSASLGEKVTMTCRASSSVNYMYWYQQKSDASPKLWIYFTSSLAPGVPGRFSGSGSGNSYSLTISTMEGEDAATYYCQQFTTSPFTFGSGTKLEIK |  |  |  | 4210
19 | A2-7F01 (antibody, V domains shown, mouse hybridoma antibody (supernatant, or purified by Protein A); also called antibody designated A2-7F01) VH: QVQLQQPGAELVKPGASVKLSCKASGYTFTIYWINWVKQRPGQGLEWIGNIYPGSSSTNYNEKFKTKATLTVDTSSSTAYMQLSSLTSDDSAVYYCAITGTGGFAYWGQGTLVTVSA VL: ENVLTQSPAIMSASLGEKVTMSCRASSSVNYMYWYQQKSDASPKLWIYFTSSLAPGVPTRFSGSGSGNSFSLTISSMEGEDAATYYCQQLTGSPFTFGSGTRLEIK |  |  |  | 6260
